Experimental data: patent US12643935B2, “PD-L1 binding peptides” (UNIVERSITY OF SOUTHERN CALIFORNIA, priority 2020, dated 2026)
Entries after “also recorded” stand apart in the source; their conditions may differ. Each block holds one substance with its values, some of them ahead of it. Where no end group is shown, it is not given here. [ ]: non-standard residue; d: D form. NMeNle = CCCC[C@H](NC)C(=O)O; NMeA = CN[C@@H](C)C(=O)O

Experiments:
hPD-L1 [1] = biological target: T1, hPD-L1 (Homo sapiens, UniProt Q9NZQ7); assay: Radiolabeled [35S] peptide binding assay on immobilized hPD-L1; parameters: designed from A18 to T239 with a methionine added to the N-terminus; hexahistidine tag (C); made in house; settings: for hPD-L1 binding of SPAM alanine mutant normalized to SPAM: [35S]-labeled variants, n=3
Procedure: [^35S]-labeled peptides were translated as described above by including 2 μCi labeled methionine (Perkin Elmer) per 10 pmol of template in the translation reaction. Each peptide was tested with a […] (for X9-library derived peptides) (SEQ ID NO: 11) or a […] (for X17-library derived peptides) (SEQ ID NO: 12) C-terminal sequence. […] The supernatant was removed and was counted. The beads were subsequently washed three times with 1 mL of blocking buffer and the washes were also counted. Finally, the beads were resuspended in 1 mL of blocking buffer and were counted separately. The ratio of the counts remaining on the beads to the total counts added to the binding reaction (the sum of the counts for supernatant, washes, and beads) was calculated to determine the percent bound.

hPD-L1 [2] = settings: known peptides; cited from earlier work
hPD-L1 [3] = biological target: T1, hPD-L1; assay: Binding of second-generation fusions after RNase treatment and in 25% human serum; parameters: target for immobilization and selection, the extracellular domain of hPD-L1 (from A18 to T239); hexahistidine tag (C); settings: 22° C., 25 pmol PD-L1; for binding to hPD-L1 after RNase treatment: RNase A 30 min 37° C.; for binding to hPD-L1 in human serum: RNase-treated fusions in 25% human serum in DMEM
Procedure: The sequences identified from Sanger sequencing (A,B,C,D) were tested under binding conditions modified to be similar to physiological conditions and compared to the wildtype sequence (S) (FIG. 14). Sequences were prepared as fusions in standard blocking buffer, as RNase-treated fusions (RNase A treatment for 30 min. at 37° C.) in standard blocking buffer, or as RNase-treated fusions in 25% human serum in DMEM. Binding was measured at 22° C. with 0 and 25 pmol biotinylated PD-L1.

hPD-L1 [4] = biological target: T1, hPD-L1; assay: Radioactive binding assay of second-generation clones on immobilized human PD-L1; parameters: target for immobilization and selection, the extracellular domain of hPD-L1 (from A18 to T239); hexahistidine tag (C); settings: 22° C., 2.5 or 12.5 pmol immobilized PD-L1

Substance: Cyclo[(AcPhe)(NMePhe)(NMeNle)(Sar)DV(NMePhe)Y(Sar)WYLC-Gly-NH2 [Peptide-71]
EC50 (hPD-L1 [2]): 293 nM
IC50 (hPD-L1 [2]): 7 nM

Substance: Cyclo[(AcPhe)NMeAla)NPHLSWSW(NMeNle)(NMeNle)RC]Gly-NH2 (Ac-F[NMeA]NPHLSWSW[NMeNle][NMeNle]RCG-NH2; bridge (positions not given here); also: cyclic, ring from residue 1 to Cys 14, linkage type not given here) [Peptide-57]
EC50 (hPD-L1 [2]): 566 nM
IC50 (hPD-L1 [2]): 9 nM

Substance: DYHDPSLPTLRK [CLP004]
IC50 (hPD-L1 [2]): 1170 nM
Kd (hPD-L1 [2]): 544 nM

Substance: HYPFRPHANQAS [CLP001]
Kd (hPD-L1 [2]): 534 nM

Substance: KHAHHTHNLRLP [D-PPA-2]
Kd (hPD-L1 [2]): 1130 nM

Substance: MEFTSDHSLNKFIILHYANNPF [Peptide C]
binding to hPD-L1 after RNase treatment (hPD-L1 [3]): significant net binding; also recorded: show binding
binding to hPD-L1 in human serum (hPD-L1 [3]): significant net binding; also recorded: show binding
binding to immobilized human PD-L1 relative to parental SPAM (S) (hPD-L1 [4]): comparable binding to the most frequent sequences; also recorded: better binding than the parental SPAM

Substance: MWSITDHNLNKFWILHYATKHG
binding to hPD-L1 after RNase treatment (hPD-L1 [3]): significant net binding; also recorded: show binding
binding to hPD-L1 in human serum (hPD-L1 [3]): significant net binding; also recorded: show binding
binding to immobilized human PD-L1 relative to parental SPAM (S) (hPD-L1 [4]): better binding than the parental SPAM

Substance: MWSRSDHNLNKFWILHYSANPS [Peptide 7]
binding to immobilized human PD-L1 relative to parental SPAM (S) (hPD-L1 [4]): better binding than the parental SPAM

Substance: MYSLNDHNLNKFWILHFAVNQM [Peptide 5]
binding to immobilized human PD-L1 relative to parental SPAM (S) (hPD-L1 [4]): better binding than the parental SPAM

Substance: MYSRVDHNLNKFWILHQALKSN [Peptide 8]
binding to immobilized human PD-L1 relative to parental SPAM (S) (hPD-L1 [4]): better binding than the parental SPAM

Substance: MYTDADHILNKFLIMHYARNQQ [Peptide 1]
binding to immobilized human PD-L1 relative to parental SPAM (S) (hPD-L1 [4]): better binding than the parental SPAM

Substance: MYTLTDHILNKFWIMHYARNPT
binding to hPD-L1 after RNase treatment (hPD-L1 [3]): significant net binding; also recorded: show binding
binding to hPD-L1 in human serum (hPD-L1 [3]): significant net binding; also recorded: show binding
binding to immobilized human PD-L1 relative to parental SPAM (S) (hPD-L1 [4]): comparable binding to the most frequent sequences; also recorded: better binding than the parental SPAM

Substance: MYTQTDHTLNKFLIMHEAFNST [Peptide 3]
binding to immobilized human PD-L1 relative to parental SPAM (S) (hPD-L1 [4]): better binding than the parental SPAM

Substance: MYTSTDHILNKFLILHESLQST [Peptide 6]
binding to immobilized human PD-L1 relative to parental SPAM (S) (hPD-L1 [4]): better binding than the parental SPAM

Substance: NYSKPTDRQYHF [D-PPA-1]
Kd (hPD-L1 [2]): 510 nM

Substance: SGQYASYHCWCWRDPGRSGGSK [TPP-1]
Kd (hPD-L1 [2]): 95 nM

Substance: WHFSYNWRWLPP [CLP003]
IC50 (hPD-L1 [2]): 2220 nM
Kd (hPD-L1 [2]): 117 nM

Substance: WHRSYYTWNLNT [CLP002]
IC50 (hPD-L1 [2]): 2170 nM
Kd (hPD-L1 [2]): 366 nM

Second part, led by results:

hPD-L1 binding of SPAM alanine mutant normalized to SPAM (hPD-L1 [1]): little or no significant influence
Substance: 13A: SPAM variant, alanine substituted at position 3 (MPAFLDHILNKFWILHYAGSGSSGHHHHHHSS) [Peptide 13A]

hPD-L1 binding of SPAM alanine mutant normalized to SPAM (hPD-L1 [1]): little or no significant influence
Substance: 18A: SPAM variant, alanine substituted at position 8 (MPIFLDHALNKFWILHYAGSGSSGHHHHHHSS) [Peptide 18A]

hPD-L1 binding of SPAM alanine mutant normalized to SPAM (hPD-L1 [1]): completely abolished hPD-L1 binding
Substance: 114A: SPAM variant, alanine substituted at position 14 (MPIFLDHILNKFWALHYAGSGSSGHHHHHHSS) [Peptide 114A]

hPD-L1 binding of SPAM alanine mutant normalized to SPAM (hPD-L1 [1]): completely abolished hPD-L1 binding
Substance: A18: SPAM variant, glycine substituted for alanine at position 18 (MPIFLDHILNKFWILHYGGSGSSGHHHHHHSS; not fully specified) [Peptide A18]

hPD-L1 binding of SPAM alanine mutant normalized to SPAM (hPD-L1 [1]): completely abolished hPD-L1 binding
Substance: D6A: SPAM variant, alanine substituted at position 6 (MPIFLAHILNKFWILHYAGSGSSGHHHHHHSS) [Peptide D6A]

hPD-L1 binding of SPAM alanine mutant normalized to SPAM (hPD-L1 [1]): little or no significant influence
Substance: F4A: SPAM variant, alanine substituted at position 4 (MPIALDHILNKFWILHYAGSGSSGHHHHHHSS) [Peptide F4A]

hPD-L1 binding of SPAM alanine mutant normalized to SPAM (hPD-L1 [1]): completely abolished hPD-L1 binding
Substance: F12A: SPAM variant, alanine substituted at position 12 (MPIFLDHILNKAWILHYAGSGSSGHHHHHHSS) [Peptide F12A]

hPD-L1 binding of SPAM alanine mutant normalized to SPAM (hPD-L1 [1]): completely abolished hPD-L1 binding
Substance: H7A: SPAM variant, alanine substituted at position 7 (MPIFLDAILNKFWILHYAGSGSSGHHHHHHSS) [Peptide H7A]

hPD-L1 binding of SPAM alanine mutant normalized to SPAM (hPD-L1 [1]): completely abolished hPD-L1 binding
Substance: H16A: SPAM variant, alanine substituted at position 16 (MPIFLDHILNKFWILAYAGSGSSGHHHHHHSS) [Peptide H16A]

hPD-L1 binding of SPAM alanine mutant normalized to SPAM (hPD-L1 [1]): completely abolished hPD-L1 binding
Substance: K11A: SPAM variant, alanine substituted at position 11 (MPIFLDHILNAFWILHYAGSGSSGHHHHHHSS) [Peptide K11A]

hPD-L1 binding of SPAM alanine mutant normalized to SPAM (hPD-L1 [1]): little or no significant influence
Substance: L5A: SPAM variant, alanine substituted at position 5 (MPIFADHILNKFWILHYAGSGSSGHHHHHHSS) [Peptide L5A]

hPD-L1 binding of SPAM alanine mutant normalized to SPAM (hPD-L1 [1]): little or no significant influence
Substance: L9A: SPAM variant, alanine substituted at position 9 (MPIFLDHIANKFWILHYAGSGSSGHHHHHHSS) [Peptide L9A]

hPD-L1 binding of SPAM alanine mutant normalized to SPAM (hPD-L1 [1]): completely abolished hPD-L1 binding
Substance: L15A: SPAM variant, alanine substituted at position 15 (MPIFLDHILNKFWIAHYAGSGSSGHHHHHHSS) [Peptide L15A]

binding to immobilized human PD-L1 relative to parental SPAM (S) (hPD-L1 [4]): better binding than the parental SPAM
Substance: MKHSTDHVLNKFYIMHYTANPN [Peptide 9]

binding to heavily loaded hPD-L1 beads (hPD-L1 [1]; streptavidin agarose beads loaded with 1.1 μM hPD-L1 (1,100 pmol)): some binding
Substance: MRIFAVFIFMTYWHLLNA [hPD-L1 signal peptide]

binding to immobilized human PD-L1 relative to parental SPAM (S) (hPD-L1 [4]): better binding than the parental SPAM
Substance: MYSHNDHNLNKFWILHFAVNQM [Peptide B]
binding to hPD-L1 after RNase treatment (hPD-L1 [3]): significant net binding; also recorded: show binding
binding to hPD-L1 in human serum (hPD-L1 [3]): significant net binding; also recorded: show binding

hPD-L1 binding of SPAM alanine mutant normalized to SPAM (hPD-L1 [1]): completely abolished hPD-L1 binding
Substance: N10A: SPAM variant, alanine substituted at position 10 (MPIFLDHILAKFWILHYAGSGSSGHHHHHHSS) [Peptide N10A]

hPD-L1 binding of SPAM alanine mutant normalized to SPAM (hPD-L1 [1]): decreased levels of hPD-L1 binding
Substance: P2A: SPAM variant, alanine substituted at position 2 (MAIFLDHILNKFWILHYAGSGSSGHHHHHHSS) [Peptide P2A]

hPD-L1 binding of SPAM alanine mutant normalized to SPAM (hPD-L1 [1]): completely abolished hPD-L1 binding
Substance: W13A: SPAM variant, alanine substituted at position 13 (MPIFLDHILNKFAILHYAGSGSSGHHHHHHSS) [Peptide W13A]

hPD-L1 binding of SPAM alanine mutant normalized to SPAM (hPD-L1 [1]): decreased levels of hPD-L1 binding
Substance: Y18A: SPAM variant, alanine substituted for tyrosine (position 17 of SPAM) (MPIFLDHILNKFWILHAAGSGSSGHHHHHHSS) [Peptide Y18A]
